Data on 2 molecules can be found in patent publication CN117327177A (dated 2024).

The target in assay [1] is 脂联素抗原(购自HYTEST，8AN7) (UniProt Q15848). Kind of assay: indirect ELISA, adiponectin coated at 0.5 ug/ml, antibody at 0.39 ng/ml.
Assay [2] has the same target. Put plainly: indirect ELISA, adiponectin coated at 0.5 ug/ml, antibody at 0.78 ng/ml. (ELISA stands for enzyme-linked immunosorbent assay.)
Assay [3] shares this target. Kind of assay: indirect ELISA, adiponectin coated at 0.5 ug/ml, antibody at 1.56 ng/ml.
The target is the same in assay [4]. Put plainly: indirect ELISA, adiponectin coated at 0.5 ug/ml, antibody at 3.13 ng/ml.
The target is the same in assay [5]. Kind of assay: indirect ELISA, adiponectin coated at 0.5 ug/ml, antibody at 6.25 ng/ml.
For assay [6] the target is unchanged. Put plainly: indirect ELISA, adiponectin coated at 0.5 ug/ml, antibody at 0 ng/ml (blank).
Assay [7] has the same target. Kind of assay: BLI, antibody captured on AMC sensor, adiponectin antigen in gradient dilution in PBST. For orientation: In BLI a coated tip is dipped into the sample, and binding shifts an interference pattern.
The target in the next assay is T1, Adiponectin (human, UniProt Q15848).
T1 chain: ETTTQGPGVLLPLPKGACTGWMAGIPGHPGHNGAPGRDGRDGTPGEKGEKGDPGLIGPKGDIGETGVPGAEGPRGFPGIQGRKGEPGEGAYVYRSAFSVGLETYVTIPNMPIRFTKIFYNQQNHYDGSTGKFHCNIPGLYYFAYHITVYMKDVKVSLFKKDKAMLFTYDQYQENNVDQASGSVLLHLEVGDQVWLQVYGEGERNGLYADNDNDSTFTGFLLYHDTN
Put plainly: BLI.

Consider 对照 (antibody), for which the OD450 (ref 630 nm) with 脂联素抗原(购自HYTEST，8AN7) [1] was determined as 0.261 OD; in the assay with 脂联素抗原(购自HYTEST，8AN7) [2], 0.451 OD; with 脂联素抗原(购自HYTEST，8AN7) [3], 0.802 OD; with 脂联素抗原(购自HYTEST，8AN7) [4], 1.43 OD; with 脂联素抗原(购自HYTEST，8AN7) [5], 1.8 OD; in the assay with 脂联素抗原(购自HYTEST，8AN7) [6], 0.055 OD. The same molecule yielded a Kd with 脂联素抗原(购自HYTEST，8AN7) [7] of 87.1 nM. This molecule came in with a koff in the assay with 脂联素抗原(购自HYTEST，8AN7) [7] of 0.00923 s⁻¹. This molecule also displayed an on-rate constant (kon) with 脂联素抗原(购自HYTEST，8AN7) [7] of 106000 M⁻¹ s⁻¹.

B1: Anti-APN 6C2mut1 (antibody, V domains shown)
VH: EVQLQQSGPELVKPGASVKMSCKASGYSFTGYFINWVKQSHGKSLEWIGRINPYNGDTFYNEKFKGKATFTADISSSAAHMELLSLTSEDSAVYYCGRGGGLQRPYFDYWGQGTTLTVSP
VL: DIQMTQSSSYLSVSLGGRVTITCKASDHVNNWLAWYQQKPGNAPRLLISGATNLETGVPSRFSGSGSGKDYTLTITSVQTEDVATYYCQQYWISALTFGAGTKLELN
The molecule B1 yielded a dissociation constant (Kd) with Adiponectin of 0.374 nM. In addition, the OD450 (ref 630 nm) with 脂联素抗原(购自HYTEST，8AN7) [1] is 1.02 OD; with 脂联素抗原(购自HYTEST，8AN7) [2] it was 1.79 OD; in the assay with 脂联素抗原(购自HYTEST，8AN7) [3] it was 2.06 OD; with 脂联素抗原(购自HYTEST，8AN7) [4], 2.26 OD; with 脂联素抗原(购自HYTEST，8AN7) [5], 2.33 OD; with 脂联素抗原(购自HYTEST，8AN7) [6], 0.074 OD. In the assay with 脂联素抗原(购自HYTEST，8AN7) [7], the off-rate (koff) was found to be 0.00209 s⁻¹. For the same molecule, the association rate constant (kon) in the assay with 脂联素抗原(购自HYTEST，8AN7) [7] worked out at 5.58e+06 M⁻¹ s⁻¹.

What is called Kd is the free concentration of one partner at which half of the binding sites on the other are occupied at equilibrium, for simple one-to-one binding. Read a high Kd as lower affinity. The term koff denotes the first-order rate constant of dissociation. A high value points to a short-lived complex. What is called kon is the second-order rate constant of association.
